According to US20090170763A1 (KENJI KANGAWA, published 2009):
Read-outs that look alike come from different tables or passages of the source. Square brackets hold non-standard residues; d marks the D form. Ends that are not written are not given here. * marks the point of attachment. NMeF = CN[C@@H](Cc1ccccc1)C(=O)O; NMeL = CN[C@@H](CC(C)C)C(=O)O; Octanoyl = CCCCCCCC(=O)*; Ava = NCCCCC(=O)O; Octyl = CCCCCCCC*

Tests used:
[1] = biological target: T1, rat GHS-R (GHS receptor) expressed on CHO-GHSR62 cells (rat, UniProt O08725 1-364); test: cell-based or functional assay
T1 sequence (O08725 whole entry): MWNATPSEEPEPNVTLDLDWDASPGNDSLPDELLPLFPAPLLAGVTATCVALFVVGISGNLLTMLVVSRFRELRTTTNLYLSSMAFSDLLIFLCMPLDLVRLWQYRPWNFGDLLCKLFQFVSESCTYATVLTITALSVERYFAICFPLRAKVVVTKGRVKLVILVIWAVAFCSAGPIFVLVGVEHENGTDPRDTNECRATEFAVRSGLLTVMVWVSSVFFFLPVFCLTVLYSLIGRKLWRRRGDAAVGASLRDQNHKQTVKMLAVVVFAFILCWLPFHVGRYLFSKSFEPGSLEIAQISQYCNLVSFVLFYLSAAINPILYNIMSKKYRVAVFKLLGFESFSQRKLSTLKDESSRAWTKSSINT

[2] = biological target: T1, rat GHS-R (GHS receptor) expressed on …; test: cell-based or functional assay; remark: listed apart in the source
[3] = biological target: T1, rat GHS-R (GHS receptor) expressed on …; test: cell-based or functional assay; remark: listed apart in the source
[4] = biological target: T1, rat GHS-R (GHS receptor) expressed on …; test: cell-based or functional assay; remark: listed apart in the source
[5] = biological target: T1, rat GHS-R (GHS receptor) expressed on …; test: cell-based or functional assay; remark: listed apart in the source
[6] = biological target: amino-terminal antibody (anti-[C-Cys]-rat ghrelin [1-11] antigen); test: radioimmunoassay: inhibition of binding of radioisotope-labeled rat ghrelin to the amino-terminal antibody
[7] = biological target: T1, rat GHS-R (GHS receptor) expressed on …; test: cell-based or functional assay; remark: listed apart in the source
[8] = biological target: T1, rat GHS-R (GHS receptor) expressed on …; test: cell-based or functional assay; remark: listed apart in the source
[9] = biological target: T1, rat GHS-R (GHS receptor) expressed on …; test: cell-based or functional assay; remark: listed apart in the source
[10] = biological target: T1, rat GHS-R (GHS receptor) expressed on …; test: cell-based or functional assay; remark: listed apart in the source

## [Ava]S(Octyl)[NMeF][NMeL]-NH2 [[N-Aminopentanoyl,Ser^3(Octyl),MePhe^4,MeLeu^5]-Ghrelin (3-5)-amide]
[1]
  EC50: 86 nM
[2]
  Activity EC50: 82 nM

B1: [Ser^3(Octyl)]-Ghrelin (1-7)-amide (peptide)
peptide: GSS(Octyl)FLSP-NH2
modifications: N-terminus assumed
SMILES: CCCCCCCCOC[C@H](NC(=O)[C@H](CO)NC(=O)CN)C(=O)N[C@@H](Cc1ccccc1)C(=O)N[C@@H](CC(C)C)C(=O)N[C@@H](CO)C(=O)N1CCC[C@H]1C(N)=O
[3]
  Ca-releasing activity EC50: 5.8 nM

## GSS(Octanoyl)FLSPEHQKAQQRKESKKPPAKLQPR [rat ghrelin]
[1]
  Ca-releasing activity EC50: 2.5 nM
[4]
  Ca-releasing activity EC50: 1.5 nM
[5]
  EC50 value: 1.5 nM
[6]
  cross-reactivity: 100%

## GSS(Octanoyl)FLSPEHQRVQQR [hGhrelin (1-15)]
[7]
  Ca-releasing activity (EC50, nM): 7 nM
[8]
  Ca-releasing activity EC50: 7 nM

## Ac-GSS(Octanoyl)FLSPEHQ [[N-Acetyl]-Ghrelin (1-10)]
[9]
  Ca-releasing activity EC50: > 10000 nM

B2: [Leu^2]-Ghrelin (1-7)-amide (peptide)
peptide: GLS(Octanoyl)FLSP-NH2
modifications: N-terminus assumed
SMILES: CCCCCCCC(=O)OC[C@H](NC(=O)[C@H](CC(C)C)NC(=O)CN)C(=O)N[C@@H](Cc1ccccc1)C(=O)N[C@@H](CC(C)C)C(=O)N[C@@H](CO)C(=O)N1CCC[C@H]1C(N)=O
[9]
  Ca-releasing activity EC50: 42 nM

## GSS(Octyl)[dF]LSP-NH2 [[Ser^3(Octyl),^DPhe^4]-Ghrelin (1-7)-amide]
[3]
  Ca-releasing activity EC50: 2200 nM

## GSS(Octanoyl)FLSPEHQKAQQR [rGhrelin (1-15)]
[7]
  Ca-releasing activity (EC50, nM): 8.6 nM
[8]
  Ca-releasing activity EC50: 8.6 nM

B3: [N-Aminopentanoyl]-Ghrelin (3-7)-amide (peptide)
peptide: [Ava]S(Octanoyl)FLSP-NH2
modifications: N-terminus assumed
SMILES: CCCCCCCC(=O)OC[C@H](NC(=O)CCCCN)C(=O)N[C@@H](Cc1ccccc1)C(=O)N[C@@H](CC(C)C)C(=O)N[C@@H](CO)C(=O)N1CCC[C@H]1C(N)=O
[9]
  Ca-releasing activity EC50: 3.4 nM

## GSS(Octanoyl)FLSPEHQKAQRKESKKPPAKLQPR [rat ghrelin-27]
[7]
  Ca-releasing activity (EC50, nM): 2.8 nM
[8]
  Ca-releasing activity EC50: 1.5 nM

## GS[dS](Octyl)[dF]LSP-NH2 [[^DSer^3(Octyl),^DPhe^4]-Ghrelin (1-7)-amide]
[3]
  Ca-releasing activity EC50: > 10000 nM

## GS[dS](Octyl)FLSP-NH2 [[^DSer^3(Octyl)]-Ghrelin (1-7)-amide]
[3]
  Ca-releasing activity EC50: > 10000 nM

## KESKKPPAKLQPR (not fully specified) [Ghrelin (16-28)]
[7]
  Ca-releasing activity (EC50, nM): > 10000 nM
[8]
  Ca-releasing activity EC50: > 10000 nM

## GSK(Octanoyl)FLSPEHQRVQQRKESKKPPAKLQPR [[Lys^3(Octanoyl)]-hGhrelin]
[10]
  Activity EC50: 32 nM
